Where a SMILES comes first, the peptide text is derived from it. Where no end group is shown, it is not given here. [ ]: non-standard residue; d: D form. The star is where a group is joined. Palmitoyl = CCCCCCCCCCCCCCCC(=O)*
B1: peptide 29 (Pal-RNNSRLGNGVLF-NH2) (peptide)
peptide: Palmitoyl-RNNSRLGNGVLF-NH2
SMILES: CCCCCCCCCCCCCCCC(=O)N[C@@H](CCCNC(=N)N)C(=O)N[C@@H](CC(N)=O)C(=O)N[C@@H](CC(N)=O)C(=O)N[C@@H](CO)C(=O)N[C@@H](CCCNC(=N)N)C(=O)N[C@@H](CC(C)C)C(=O)NCC(=O)N[C@@H](CC(N)=O)C(=O)NCC(=O)N[C@H](C(=O)N[C@@H](CC(C)C)C(=O)N[C@@H](Cc1ccccc1)C(N)=O)C(C)C
B2: peptide 3 (Pal-HRKRNNSRLGNGVLYASVN-NH2) (peptide)
peptide: Palmitoyl-HRKRNNSRLGNGVLYASVN-NH2
SMILES: CCCCCCCCCCCCCCCC(=O)N[C@@H](Cc1c[nH]cn1)C(=O)N[C@@H](CCCNC(=N)N)C(=O)N[C@@H](CCCCN)C(=O)N[C@@H](CCCNC(=N)N)C(=O)N[C@@H](CC(N)=O)C(=O)N[C@@H](CC(N)=O)C(=O)N[C@@H](CO)C(=O)N[C@@H](CCCNC(=N)N)C(=O)N[C@@H](CC(C)C)C(=O)NCC(=O)N[C@@H](CC(N)=O)C(=O)NCC(=O)N[C@H](C(=O)N[C@@H](CC(C)C)C(=O)N[C@@H](Cc1ccc(O)cc1)C(=O)N[C@@H](C)C(=O)N[C@@H](CO)C(=O)N[C@H](C(=O)N[C@@H](CC(N)=O)C(N)=O)C(C)C)C(C)C
B3: peptide 30 (Pal-RNNSRLGNGVL-NH2) (peptide)
peptide: Palmitoyl-RNNSRLGNGVL-NH2
SMILES: CCCCCCCCCCCCCCCC(=O)N[C@@H](CCCNC(=N)N)C(=O)N[C@@H](CC(N)=O)C(=O)N[C@@H](CC(N)=O)C(=O)N[C@@H](CO)C(=O)N[C@@H](CCCNC(=N)N)C(=O)N[C@@H](CC(C)C)C(=O)NCC(=O)N[C@@H](CC(N)=O)C(=O)NCC(=O)N[C@H](C(=O)N[C@@H](CC(C)C)C(N)=O)C(C)C
B4: peptide 4 (Pal-HRKRNNSRLGNGVLYASVNPEYFSAA-NH2) (peptide)
peptide: Palmitoyl-HRKRNNSRLGNGVLYASVNPEYFSAA-NH2
SMILES: CCCCCCCCCCCCCCCC(=O)N[C@@H](Cc1c[nH]cn1)C(=O)N[C@@H](CCCNC(=N)N)C(=O)N[C@@H](CCCCN)C(=O)N[C@@H](CCCNC(=N)N)C(=O)N[C@@H](CC(N)=O)C(=O)N[C@@H](CC(N)=O)C(=O)N[C@@H](CO)C(=O)N[C@@H](CCCNC(=N)N)C(=O)N[C@@H](CC(C)C)C(=O)NCC(=O)N[C@@H](CC(N)=O)C(=O)NCC(=O)N[C@H](C(=O)N[C@@H](CC(C)C)C(=O)N[C@@H](Cc1ccc(O)cc1)C(=O)N[C@@H](C)C(=O)N[C@@H](CO)C(=O)N[C@H](C(=O)N[C@@H](CC(N)=O)C(=O)N1CCC[C@H]1C(=O)N[C@@H](CCC(=O)O)C(=O)N[C@@H](Cc1ccc(O)cc1)C(=O)N[C@@H](Cc1ccccc1)C(=O)N[C@@H](CO)C(=O)N[C@@H](C)C(=O)N[C@@H](C)C(N)=O)C(C)C)C(C)C
B5: peptide 21 (Pal-VSAYLVGNGLRSNNR-NH2) (peptide)
peptide: Palmitoyl-[dV][dS][dA][dY][dL][dV]G[dN]G[dL][dR][dS][dN][dN][dR]-NH2
SMILES: CCCCCCCCCCCCCCCC(=O)N[C@@H](C(=O)N[C@H](CO)C(=O)N[C@H](C)C(=O)N[C@H](Cc1ccc(O)cc1)C(=O)N[C@H](CC(C)C)C(=O)N[C@@H](C(=O)NCC(=O)N[C@H](CC(N)=O)C(=O)NCC(=O)N[C@H](CC(C)C)C(=O)N[C@H](CCCNC(=N)N)C(=O)N[C@H](CO)C(=O)N[C@H](CC(N)=O)C(=O)N[C@H](CC(N)=O)C(=O)N[C@H](CCCNC(=N)N)C(N)=O)C(C)C)C(C)C

Experiments:
[1] = tested on: MCF-7 breast cancer cells; experiment: MTT cell toxicity assay in MCF-7 breast cancer cells; type: cell-based; conditions: MCF-7 cells, MTT; for TGI: concentration of total growth inhibition (cytostatic); for growth inhibition / potency in MCF-7 cells (in words): comparison with related peptides
Method in brief: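 MCF-7 cells seeded in 1% FBS medium, grown 24 h, then exposed to compounds at 0.1, 0.5, 2.5 or 5.0 μM (final, 0.5% FBS) for 48 h. MTT absorbance at 544 nm; growth relative to time-zero and untreated controls gave GI50 (50% growth inhibition) and TGI (zero net growth).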

[2] = tested on: AKT kinase; experiment: OMNIA fluorogenic AKT kinase activity assay in lysates of IGF-1-stimulated MCF-7 cells, FIG. 3; type: cell-based; conditions: MCF-7 stimulated with IGF-1, inhibitor 0 to 0.5 μM to 2.5 μM
Experimental: AKT Kinase Assay: OMNIA™ fluorogenic AKT Kinase Activity Assay Kit (BioSource through Invitrogen) was used for the measurement of AKT activity in cell lysates. To prepare for the cell treatment, MCF-7 cells were seeded into four wells on a six-well plate in RPMI medium. The medium was supplemented with 10% Fetal Bovine Serum to aid the cell attachment. The cells were incubated for 24 hours, after which time the 10% serum medium was aspirated and replaced with 2 mL of no-serum medium. The cells were starved overnight to stop the signaling from the FBS. On the third day, the medium was replaced and different dilutions of peptide diluted in no-serum medium was added to the four wells. Well 1 & 2 had 0.0 μM of 18, well 3 0.5 and well 4 2.5 μM.
The cells were placed on ice briefly to aid in detaching and then scraped from the bottom of the wells and rinsed with cold PBS. The cells suspended in PBS were collected and centrifuged for 5 minutes at 1500 rpm at 4° C. and the medium aspirated. […]
Master mix AKT fluorogenic substrate was prepared according to the protocol provided by BioSource. […] The fluorescence was excited at 360 nm and read at 485 nm for a length of 60 minutes every thirty seconds on a FLUOstar/POLARstar Galaxy (BMG Lab Technologies GmbH) microplate reader. […]

[3] = tested on: breast cancer cell lines; experiment: Alternative potency assay (MTT, serum-free, IGF-1 added) in cancer cell lines, FIG. 1; type: cell-based; conditions: breast cancer cell lines (MCF-7, T47D), IGF-1 10 ng/mL
Experimental: An alternative potency assay was used to test compounds in MCF-7 (breast cancer), T47D (breast cancer), Colo 205 (colon cancer), JM-1 (rat hepatoma), Sk MeI-2 (melanoma), PLC (human hepatoma), and HepG2 (human hepatoma) cells. Cells were suspended at a concentration of approximately 5000 cells per 100 μL of suspension in a 5% FBS RPMI medium. The cells were seeded into 96-count wells and incubated over night. After one day's incubation, the 5% FBS medium was aspirated and replaced with 100 μL of no serum RPMI medium containing 1 mg Bovine Serum Albumin (BSA) per 1 mL RPMI. Various concentrations of the test compounds were prepared by dilution in no-serum medium containing 1 mg BSA/mL. […] Absorbance of the wells at 544 nm was determined by a FLUOstar/POLARstar Galaxy (BMG Lab Technologies GmbH) microplate reader. The activity was calculated from the data using the formula: 100×[(T−T0)/(C−T0)] for T>T0 and 100×[(T−T0)/T0] for T<T0, wherein T0 corresponds to cell density at the time of drug addition, “T” is the optical density of the test well after a 48-h period of exposure to test drug, and “C” is the control optical density. […]

[4] = target: Insulin-like growth factor 1 receptor (IGF1R) (UniProt P08069 31-1367, limits assumed); experiment: cell-based or functional assay
Insulin-like growth factor 1 receptor (IGF1R), sequence (P08069 31-1367 limits assumed): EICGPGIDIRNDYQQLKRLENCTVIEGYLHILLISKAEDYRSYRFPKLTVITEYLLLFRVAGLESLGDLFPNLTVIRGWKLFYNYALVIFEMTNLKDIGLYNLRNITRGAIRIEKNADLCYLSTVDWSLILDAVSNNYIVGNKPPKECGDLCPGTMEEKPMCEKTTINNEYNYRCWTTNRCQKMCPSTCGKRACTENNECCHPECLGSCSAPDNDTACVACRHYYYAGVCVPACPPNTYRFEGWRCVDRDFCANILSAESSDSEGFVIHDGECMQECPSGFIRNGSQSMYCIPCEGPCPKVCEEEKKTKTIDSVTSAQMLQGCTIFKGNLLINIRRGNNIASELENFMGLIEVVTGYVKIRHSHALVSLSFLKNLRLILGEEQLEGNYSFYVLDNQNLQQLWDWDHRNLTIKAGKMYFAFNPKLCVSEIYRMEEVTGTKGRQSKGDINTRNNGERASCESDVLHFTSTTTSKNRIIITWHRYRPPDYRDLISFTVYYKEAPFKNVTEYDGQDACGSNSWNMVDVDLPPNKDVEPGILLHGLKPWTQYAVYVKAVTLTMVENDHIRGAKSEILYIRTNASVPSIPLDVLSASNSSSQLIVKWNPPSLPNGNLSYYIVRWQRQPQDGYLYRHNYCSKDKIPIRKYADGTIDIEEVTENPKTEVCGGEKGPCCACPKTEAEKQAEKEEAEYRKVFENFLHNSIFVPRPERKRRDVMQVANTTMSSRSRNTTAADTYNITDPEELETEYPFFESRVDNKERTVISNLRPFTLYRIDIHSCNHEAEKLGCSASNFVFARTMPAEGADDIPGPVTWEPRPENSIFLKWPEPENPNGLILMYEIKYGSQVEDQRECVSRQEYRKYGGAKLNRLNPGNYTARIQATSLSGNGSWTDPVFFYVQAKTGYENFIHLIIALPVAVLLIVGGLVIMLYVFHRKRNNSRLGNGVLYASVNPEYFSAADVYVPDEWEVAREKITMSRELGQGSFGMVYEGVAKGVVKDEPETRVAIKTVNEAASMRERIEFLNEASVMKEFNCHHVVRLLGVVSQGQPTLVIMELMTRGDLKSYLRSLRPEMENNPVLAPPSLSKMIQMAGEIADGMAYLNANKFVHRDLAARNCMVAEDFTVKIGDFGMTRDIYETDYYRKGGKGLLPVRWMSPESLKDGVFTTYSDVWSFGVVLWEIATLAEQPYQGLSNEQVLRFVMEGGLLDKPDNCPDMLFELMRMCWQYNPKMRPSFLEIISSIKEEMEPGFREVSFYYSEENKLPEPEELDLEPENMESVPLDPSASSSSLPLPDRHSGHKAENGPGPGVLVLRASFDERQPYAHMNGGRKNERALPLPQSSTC

[5] = final 0.5% FBS, two days with compound

Molecule | GI50 (µM), MTT assay, MCF-7 cells [4] [µM] | TGI (µM), MTT assay, MCF-7 cells [4] [µM] | also measured
CCCCCCCCCCCCCCCC(=O)NCCCC[C@@H](NC(=O)[C@@H](CCCNC(=N)N)NC(=O)[C@@H](CC(N)=O)NC(=O)[C@@H](CC(N)=O)NC(=O)[C@@H](CO)NC(=O)[C@@H](CCCNC(=N)N)NC(=O)[C@@H](CC(C)C)NC(=O)CNC(=O)[C@@H](CC(N)=O)NC(=O)CNC(=O)[C@H](NC(=O)[C@@H](CC(C)C)NC(=O)[C@@H](Cc1ccc(O)cc1)NC(C)=O)C(C)C)C(N)=O [Peptide 18, Ac-YLVGNGLRSNNRK-(ε-Pal)] (Ac-[dY][dL][dV]G[dN]G[dL][dR][dS][dN][dN][dR][dK](Palmitoyl)-NH2; C-terminus assumed) | – | – | TGI [1, 5]: 400 ± 20 nM; growth inhibition / potency in MCF-7 cells (in words) [1]: increased the potency; AKT enzyme activity [2]: decreased to undetectable levels
CCCCCCCCCCCCCCCC(=O)N[C@@H](Cc1c[nH]cn1)C(=O)N[C@@H](CCCNC(=N)N)C(=O)N[C@@H](CCCCN)C(=O)N[C@@H](CCCNC(=N)N)C(=O)N[C@@H](CC(N)=O)C(=O)N[C@@H](CC(N)=O)C(=O)N[C@@H](CO)C(=O)N[C@@H](CCCNC(=N)N)C(=O)N[C@@H](CC(C)C)C(=O)NCC(=O)N[C@@H](CC(N)=O)C(=O)NCC(=O)N[C@H](C(=O)N[C@@H](CC(C)C)C(=O)N[C@@H](Cc1ccc(O)cc1)C(N)=O)C(C)C [Peptide 9, Pal-HRKRNNSRLGNGVLY-NH2] (Palmitoyl-HRKRNNSRLGNGVLY-NH2) | – | – | GI50 [1, 5]: 1650 ± 100 nM; TGI [1, 5]: >5000 nM; growth inhibition / potency in MCF-7 cells (in words) [1]: did not improve the degree of folding or the potency; cell-growth inhibitory properties [3]: significant cell-growth inhibitory properties
Ac-[dY][dL][dV]G[dN]G[dL][dR][dS][dN][dN][dR][dK](Palmitoyl) [peptide 18 (Ac-YLVGNGLRSNNRK-(ε-Pal)), retro-inverso version of peptide 27] | 0.04 | 0.4 | –
B1 | 0.1 | 1.2 | –
B2 | 1 | 1.55 | –
B3 | 1.7 | 3.7 | –
Palmitoyl-RNNSRLGNGVLYAS-NH2 (not fully specified; printed as Pal-RNNSRLGNGVLYAS-NH2) [peptide 34 (Pal-RNNSRLGNGVLYAS-NH2)] | 0.04 | > 5 | –
B4 | 1 | > 5 | –
Palmitoyl-RNNSRLGNGVLYASV-NH2 (not fully specified; printed as Pal-RNNSRLGNGVLYASV-NH2) [peptide 35 (Pal-RNNSRLGNGVLYASV-NH2)] | 0.05 | 2.5 | –
Palmitoyl-RNNSRLGNGVLYA-NH2 (not fully specified; printed as Pal-RNNSRLGNGVLYA-NH2) [peptide 33 (Pal-RNNSRLGNGVLYA-NH2)] | 0.1 | > 5 | –
B5 | 0.04 | 0.1 | –
